The target of test [1] is T1, rat LINGO-1 expressed on CHO-K1 cells (CHO-K1-rLINGO-1) (rat, UniProt A0A8I5ZPI2 34-614).
T1 construct: range 34-614; not shown: 2 amino acid residue linker
T1 sequence: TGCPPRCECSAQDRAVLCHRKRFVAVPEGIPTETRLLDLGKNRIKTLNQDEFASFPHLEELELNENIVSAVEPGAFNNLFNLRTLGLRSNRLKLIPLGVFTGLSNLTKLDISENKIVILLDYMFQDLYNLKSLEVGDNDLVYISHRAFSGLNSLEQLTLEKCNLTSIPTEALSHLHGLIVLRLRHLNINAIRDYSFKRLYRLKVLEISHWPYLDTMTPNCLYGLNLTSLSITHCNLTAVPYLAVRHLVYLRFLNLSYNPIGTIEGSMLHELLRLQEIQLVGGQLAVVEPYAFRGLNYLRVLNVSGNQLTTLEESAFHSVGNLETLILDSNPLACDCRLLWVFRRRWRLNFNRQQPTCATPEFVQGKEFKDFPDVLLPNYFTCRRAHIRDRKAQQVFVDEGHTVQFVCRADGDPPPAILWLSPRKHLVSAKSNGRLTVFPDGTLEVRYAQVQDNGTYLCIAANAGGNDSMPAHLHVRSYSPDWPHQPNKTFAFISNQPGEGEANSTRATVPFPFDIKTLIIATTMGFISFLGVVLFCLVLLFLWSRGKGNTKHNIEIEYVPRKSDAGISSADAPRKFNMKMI
In words: apparent KD, FACS saturation binding on CHO-K1-rLINGO-1 cells, Fab format. How it is done:
Cell based affinity of anti-LINGO-1 specific antibodies is determined by FACS saturation binding experiments. […] Otherwise the staining procedure is done identical to the FACS staining procedure described above.
In detail, CHO-K1-hLINGO-1, CHO-K1-cmLINGO-1 or CHO-K1-rLINGO-1 are detached from culture flasks by versene, washed with FACS buffer and resuspended in FACS buffer. Purified anti-LINGO-1 Fabs are serially diluted in FACS buffer and spread into round bottom 96-well microtiter plates (NUNC™, Wiesbaden, Germany). For each concentration, duplicate wells are incubated with 1.25×10⁴ cells for 30-60 min on ice in a total volume of 100 μl.

The target of test [2] is T2, human LINGO-2 expressed on CHO-K1 cells (CHO-K1-hLINGO-2) (human, UniProt Q7L985 26-606).
T2 construct: range 26-606; not shown: 2 amino acid residue linker
T2 sequence (looked up): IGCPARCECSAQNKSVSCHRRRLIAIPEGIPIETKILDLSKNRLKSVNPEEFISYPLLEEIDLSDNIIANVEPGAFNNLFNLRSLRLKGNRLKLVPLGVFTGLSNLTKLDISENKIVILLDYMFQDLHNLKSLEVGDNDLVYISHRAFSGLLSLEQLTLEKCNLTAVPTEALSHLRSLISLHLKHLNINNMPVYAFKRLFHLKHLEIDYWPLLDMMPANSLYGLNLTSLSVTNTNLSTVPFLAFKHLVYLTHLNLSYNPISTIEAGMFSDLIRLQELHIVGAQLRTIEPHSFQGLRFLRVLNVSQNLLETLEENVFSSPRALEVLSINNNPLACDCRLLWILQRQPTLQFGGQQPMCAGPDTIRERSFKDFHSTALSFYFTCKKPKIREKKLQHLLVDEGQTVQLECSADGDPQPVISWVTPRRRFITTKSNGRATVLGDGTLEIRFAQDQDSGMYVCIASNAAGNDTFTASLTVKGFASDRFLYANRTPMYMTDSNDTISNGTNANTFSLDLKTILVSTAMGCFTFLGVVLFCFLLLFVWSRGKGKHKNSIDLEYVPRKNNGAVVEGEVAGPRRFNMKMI
As to the kind of experiment: apparent KD, FACS saturation binding on CHO-K1-hLINGO-2 cells, Fab format.

Test [3] addresses human LINGO-1 expressed on CHO-K1 cells (CHO-K1-hLINGO-1) (human) (UniProt Q96FE5). As to the kind of experiment: apparent KD, FACS saturation binding on CHO-K1-hLINGO-1 cells, Fab format.

B1: anti-LINGO-1 Fab 4785 (Fab, V domains shown)
VH: QVQLQQSGPGLVKPSQTLSLTCAISGDSVSDNSAAWSWIRQSPGRGLEWLGLIYLRSKWDNDYAVSVKSRITINPDTSKNQFSLQLNSVTPEDTAVYYCARTGRADEFDVWGQGTLVTVSS
VL: DIVLTQPPSVSGAPGQRVTISCSGSSSNIGNNYVSWYQQLPGTAPKLLISRNSKRPSGVPDRFSGSKSGTSASLAITGLQSEDEADYYCSTYDTFSIVFGGGTKLTVLG
With B1, the Kd in test [1] came out at 0.26 nM; in test [2], 1.21 nM; in test [3], 0.35 nM.

For the origin of these results see patent US20140255415A1 (Novartis, published 2014).
